Measured values as given in patent CN112279913A (TAIZHOU BAIYING BIOLOGICAL TECH CO LTD, dated 2021).

Biological target: T1, 人IL-6重组蛋白 (human, UniProt P05231 30-212, limits assumed)
T1 construct: also called 白细胞介素-6; 白介素6
Experiment: indirect ELISA, IL-6 recombinant protein coated at 2 μg/ml, purified antibody from 10 μg/ml in 3-fold dilutions, HRP goat anti-mouse IgG

B1: 抗人IL-6单克隆抗体 克隆019:8-3F8 (antibody, V domains shown)
VH: EVKLEESGGGLVQPGGSMKLSCAASGFTFSNYWMNWVRQSPEKGLEWVAEIRLRSNKYATHYAESVRGRFTISRDDSINYVYLQMNNLRAEDTGIYYCTRPRYEGTFDVWGAGTTVTVSS
VL: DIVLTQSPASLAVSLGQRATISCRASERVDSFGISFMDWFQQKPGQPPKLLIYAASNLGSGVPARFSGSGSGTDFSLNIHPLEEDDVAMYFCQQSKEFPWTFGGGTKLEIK
EC50: < 0.025 µg/mL

B2: 抗人IL-6单克隆抗体 克隆019:1-2H3 (antibody, V domains shown)
VH: QVQLQQSGPQLVRPGASVKISCKASGYSFNRSWMHWVKQRPGQGLEWIGMIDPSDTETRLNQKFKDKATLTVDESSSTAHMQFKRPTSEDSAVYYCARAYGFSIEFAYWGQGTLVTVSA
VL: DIQMSQTSSSLPASLGDRVTISCKASQDIRSYLNWYQQKPDGTVKLLIYYTSRLHSGVPSRFSGSGSGTDFSLTISNLEQEDIATYFCQQGATLPLTFGAGTKLELK
EC50: < 0.025 µg/mL
